The target of the assay is I-E^k (mouse MHC class II molecule, α- and β-subunits, six-histidine-tagged) (mouse). In words: peptide exchange induced by ultraviolet irradiation.

Turning to “MCC peptide labeled with indocarbocyanine (Cy3)”, the percent of Lys99ANP–I-E^k converted into Cy3-labeled MCC–I-E^k stood at 30%.

For the origin of these results see publication PMC3645478.
